For the test, the target named is DC-specific intercellular adhesion molecule 3-grabbing non-integrin (DC-SIGN) (human) (UniProt Q9NNX6). Kind of test: atomic force spectroscopy (AFM force spectroscopy); MUB covalently attached to the AFM tip (MAL-PEG-SCM linker), DC-SIGN, SIGN-R1 or Dectin-2 covalently attached to glass slides (GMBS); PBS; force-volume mode, 2 um/s, maximum load force 300 pN; repeated after addition of 0.05 mg/ml anti-Mub antibody.

“mucus-binding protein MUB of Lactobacillus reuteri ATCC 53608 (natural protein)” had a modal value of binding strength of 684 pN.

Source of the values: PMC5339304.
